T1: human CNTN4 antigen expressed on the cell membrane of 293FT cells (human) (UniProt Q8IWV2)
T1 sequence (looked up): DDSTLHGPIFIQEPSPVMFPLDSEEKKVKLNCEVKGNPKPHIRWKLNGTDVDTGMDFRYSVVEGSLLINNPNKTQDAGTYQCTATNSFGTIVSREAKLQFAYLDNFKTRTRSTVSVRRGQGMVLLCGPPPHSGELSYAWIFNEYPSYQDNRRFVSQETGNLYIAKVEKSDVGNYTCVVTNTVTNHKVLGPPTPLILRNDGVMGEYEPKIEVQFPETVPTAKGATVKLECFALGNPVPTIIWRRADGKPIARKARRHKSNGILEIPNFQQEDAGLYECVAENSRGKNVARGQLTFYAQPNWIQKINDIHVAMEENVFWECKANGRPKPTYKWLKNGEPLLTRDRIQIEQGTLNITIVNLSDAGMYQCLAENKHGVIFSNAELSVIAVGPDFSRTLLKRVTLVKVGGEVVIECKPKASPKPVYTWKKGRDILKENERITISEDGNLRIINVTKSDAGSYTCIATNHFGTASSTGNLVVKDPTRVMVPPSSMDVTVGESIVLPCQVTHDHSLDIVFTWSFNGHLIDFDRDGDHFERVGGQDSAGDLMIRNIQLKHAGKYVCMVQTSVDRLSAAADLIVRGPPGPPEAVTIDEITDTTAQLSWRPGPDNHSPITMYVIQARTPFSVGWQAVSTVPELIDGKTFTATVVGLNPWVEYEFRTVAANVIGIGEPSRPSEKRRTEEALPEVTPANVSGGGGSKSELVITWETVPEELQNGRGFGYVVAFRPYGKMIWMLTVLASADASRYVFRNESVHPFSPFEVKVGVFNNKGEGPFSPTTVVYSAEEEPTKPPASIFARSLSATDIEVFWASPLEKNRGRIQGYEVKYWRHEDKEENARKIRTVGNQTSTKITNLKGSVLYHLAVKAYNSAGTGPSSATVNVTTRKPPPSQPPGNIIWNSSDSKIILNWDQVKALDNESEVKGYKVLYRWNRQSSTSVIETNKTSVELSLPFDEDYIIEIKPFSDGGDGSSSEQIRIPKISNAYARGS

T2: human CNTN4-rabbit Fc (human; rabbit, UniProt Q8IWV2 19-1000, limits assumed)
T2 construct: not shown: rabbit Fc
T2 sequence (looked up): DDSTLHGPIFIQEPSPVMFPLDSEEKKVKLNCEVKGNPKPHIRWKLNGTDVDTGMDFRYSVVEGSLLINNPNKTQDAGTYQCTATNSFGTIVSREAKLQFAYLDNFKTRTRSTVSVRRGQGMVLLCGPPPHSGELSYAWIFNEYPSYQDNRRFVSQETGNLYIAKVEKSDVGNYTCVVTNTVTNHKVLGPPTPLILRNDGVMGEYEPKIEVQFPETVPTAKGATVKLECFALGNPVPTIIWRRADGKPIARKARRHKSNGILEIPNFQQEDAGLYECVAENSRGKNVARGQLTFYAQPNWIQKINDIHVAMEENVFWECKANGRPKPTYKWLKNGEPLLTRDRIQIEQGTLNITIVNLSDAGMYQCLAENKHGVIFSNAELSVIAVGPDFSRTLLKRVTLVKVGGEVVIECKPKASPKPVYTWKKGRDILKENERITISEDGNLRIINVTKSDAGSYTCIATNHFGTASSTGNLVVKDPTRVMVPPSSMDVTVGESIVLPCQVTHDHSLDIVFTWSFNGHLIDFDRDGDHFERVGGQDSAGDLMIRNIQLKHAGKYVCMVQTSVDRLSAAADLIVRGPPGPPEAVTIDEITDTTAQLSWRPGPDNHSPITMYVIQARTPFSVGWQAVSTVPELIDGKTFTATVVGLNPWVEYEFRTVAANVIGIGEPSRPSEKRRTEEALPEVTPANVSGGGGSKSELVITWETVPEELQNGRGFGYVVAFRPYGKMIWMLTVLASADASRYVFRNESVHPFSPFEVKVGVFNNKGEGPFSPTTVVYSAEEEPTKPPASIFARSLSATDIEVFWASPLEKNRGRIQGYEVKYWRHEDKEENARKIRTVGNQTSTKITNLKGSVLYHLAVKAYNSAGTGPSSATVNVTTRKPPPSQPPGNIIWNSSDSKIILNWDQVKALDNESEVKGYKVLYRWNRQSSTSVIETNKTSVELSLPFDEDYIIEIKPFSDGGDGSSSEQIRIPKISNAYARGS

T3: mouse CNTN4-rabbit Fc (mouse; rabbit, UniProt Q69Z26 19-1000, limits assumed)
T3 construct: not shown: rabbit Fc
T3 sequence (looked up): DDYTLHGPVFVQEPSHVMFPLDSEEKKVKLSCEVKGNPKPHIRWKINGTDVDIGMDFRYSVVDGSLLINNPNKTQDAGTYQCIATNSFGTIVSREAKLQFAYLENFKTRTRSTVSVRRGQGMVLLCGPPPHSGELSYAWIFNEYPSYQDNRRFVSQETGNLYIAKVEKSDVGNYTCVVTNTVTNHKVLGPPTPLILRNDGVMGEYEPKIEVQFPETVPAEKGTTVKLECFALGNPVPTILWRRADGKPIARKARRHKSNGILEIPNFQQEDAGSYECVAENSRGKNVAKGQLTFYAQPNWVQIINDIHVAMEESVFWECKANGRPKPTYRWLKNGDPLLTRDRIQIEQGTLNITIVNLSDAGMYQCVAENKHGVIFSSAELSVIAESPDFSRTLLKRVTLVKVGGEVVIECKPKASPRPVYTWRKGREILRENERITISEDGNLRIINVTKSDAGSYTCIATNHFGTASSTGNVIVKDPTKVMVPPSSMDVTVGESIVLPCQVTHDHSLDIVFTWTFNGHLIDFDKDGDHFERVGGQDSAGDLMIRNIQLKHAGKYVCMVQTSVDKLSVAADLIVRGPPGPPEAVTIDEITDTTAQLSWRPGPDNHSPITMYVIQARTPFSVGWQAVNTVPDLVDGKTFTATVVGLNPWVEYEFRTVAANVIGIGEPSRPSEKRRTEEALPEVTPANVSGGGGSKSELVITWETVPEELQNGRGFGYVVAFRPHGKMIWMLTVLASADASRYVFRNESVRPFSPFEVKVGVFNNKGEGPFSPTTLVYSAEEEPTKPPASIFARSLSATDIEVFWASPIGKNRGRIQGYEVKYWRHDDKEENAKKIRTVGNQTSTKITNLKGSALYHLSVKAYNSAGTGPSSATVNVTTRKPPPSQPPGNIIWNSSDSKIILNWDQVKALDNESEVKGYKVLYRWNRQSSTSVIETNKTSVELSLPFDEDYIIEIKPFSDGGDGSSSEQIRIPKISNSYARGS


Key:
[1] = molecular target: T1, human CNTN4 antigen expressed on the cell membrane of 293FT cells (human); assay: FACS, 293FT cells transfected with human CNTN4, 40 ug/mL, anti-hCk-PE
human CNTN4-rabbit Fc = molecular target: T2, human CNTN4-rabbit Fc; assay: ELISA, plate coated with antigen-rabbit Fc, anti-human kappa-HRP
mouse CNTN4-rabbit Fc = molecular target: T3, mouse CNTN4-rabbit Fc; assay: as above

| Shift % [1] [%] | EC50 (human CNTN4-rabbit Fc) [nM] | EC50 (mouse CNTN4-rabbit Fc) [nM] | Binder |
| --- | --- | --- | --- |
| 16.6 | 0.74 | 0.56 | anti-CNTN4 scFv-hCk S131 (scFv, part only; not given: linker and kappa constant region, not shown: a dimerising Fc or GST) scFv, part: ALTQPSSVSANLGGTVKITCSGGGSSYYGWYQQKSPGSAPVTLIYQNTNRPSNIPSRFSGSGSGSTGTLTITGVRAEDEAVYYCGGYDGSTDVFGAGTTLTVLAVTLDESEGGLQTPGGALSLVCKASGFTFSSFNMFWVRQAPGKGLEYVAEISGGGGSTWYAPAVKGRATISRDNGQSTVRLQLNNLRAEDTGTYYCAKSADTWSYGAATIDAWGHGTEVIVSS |
| 20.5 | 8.34 | 3.64 | anti-CNTN4 scFv-hCk S99 (scFv, part only; not given: linker and kappa constant region, V domains shown, not shown: another chain or arm of the molecule; a dimerising Fc or GST; small tags and cut ends) VL: ALTQPSSVSANPGETVKITCSGGASYAGNYYYGWYQQKSPGSAPVTVIYNNNQRPSDIPSRFSGSLSGSTNTLTITGVQADDEAVYFCGSDDSSAGYTGIFGAGTTLTVL VH: AVTLDESGGGLQTPGGALSLVCKASEFTFSGYGMHWVRQAPGKGLEFVAEISNTGSWTGYGAAVKGRATISRDNGQSTVRLQLNNLKADDTATYYCAKVGGRGWCGRSGCADDIDAWGHGTEVIVSS |
| 16 | 0.55 | 0.37 | anti-CNTN4 scFv-hCk S129 (scFv, part only; not given: linker and kappa constant region, not shown: a dimerising Fc or GST) scFv, part: ALTQPSSVSANLGETVKITCSGSSGSYGWYQQKSPGSAPVTLIYDNTNRPSDIPSRFSGSGSGSTGTLTITGVRAEDEAVYYCGGYDGSTDVFGAGTTLTVLAVTLDESEGGLQTPGGALSLVCKASGFTFSSFNMFWVRQAPGKGLEYVAEISGGGGSTWYAPAVKGRATISRDNGQSTVRLQLNNLRAEDTGTYYCAKSADTWSYGAATIDAWGHGTEVIVSS |

Further lines, the binder ahead of its results:

| Binder | Shift % [1] [%] | EC50 (human CNTN4-rabbit Fc) [nM] | EC50 (mouse CNTN4-rabbit Fc) [nM] |
| --- | --- | --- | --- |
| anti-CNTN4 scFv-hCk S4 (scFv, part only; not given: linker and kappa constant region, not shown: a dimerising Fc or GST) scFv, part: ALTQPSSVSANPGESVKITCSGGGSSYYGWYQQKSPGSAPVTLIYQNTNRPSNIPSRFSGSGSGSTGTLTITGVRAEDEAVYYCGGYDGSTDVFGAGTTLTVLAVTLDESEGGLQTPGGALSLVCKASGFTFSSFNMFWVRQAPGKGLEYVAEISGGGGSTWYASAVKGRATISRDNGQSTVRLQLNNLRAEDTGTYYCAKSADTWSYGAATIDAWGHGTEVIVSS | 15.4 | 2.6 | 1.15 |
| anti-CNTN4 scFv-hCk S96 (scFv, part only; not given: linker and kappa constant region, V domains shown, not shown: another chain or arm of the molecule; a dimerising Fc or GST; small tags and cut ends) VL: ALTQPSSVSANPGETVKITCSGSSGSYGYSWHQQKSPGSAPVTVIYESNKRPSNIPSRFSGSTSGSTSTLTITGVQADDEAVYFCGSADSSTTIAFGAGTTLTVL VH: AVTLDESGGGLQTPGGTLSLVCKASGFTFSTYSMQWLRQAPGKGLEWVAGISNSGSSTVYGPAVKGRATISRDNGQSTVSLQLNNLRAEDTGTYYCAKSTYGGSWYAAYSIDEWGHGTEVIVSS | 1.69 | – | – |
| anti-CNTN4 scFv-hCk S83 (scFv, part only; not given: linker and kappa constant region, not shown: a dimerising Fc or GST) scFv, part: ALTQPSSVSANLGETVKITCSGGGGYSGSYYYGWYQQKSPAGAPDTVIYSNNQRPSNIPSRFSGSKSGSTGTLTITEDHAEDEAVYYCGSIDSSSNPGIFGAGTTLTVLAVTLDKSGGGLHTPGGALSLVCKASGFTFSRYIMQWVLQAPGKVLEWVASIRNGTTPKYGAAVKGRATISRDNGQSTVMLQLNSLTYDDTDAYYCDRGDDGDCICGGCAASIDIWCYATEVIVSS | 5.27 | – | – |
| anti-CNTN4 scFv-hCk S6 (scFv, part only; not given: linker and kappa constant region, not shown: a dimerising Fc or GST) scFv, part: ALTQPSSVSANPGETVKITCSGGSGNYGWYQQKSPGSAPVTVIYNGNNRPSDIPSRFSGSGSGSTNTLAITGVQAEDEAVYFCGGYDGTIDAFGAGTTLTVLAVTLDESEGGLQTPGGALSLVCKASGFTFSSFNMFWVRQAPGKGLEYVAEISGGGGSTWYAPAVKGRATISRDNGQSTVRLQLNNLRAEDTGTYYCAKSADTWSYGAATIDAWGHGTEVIVSS | 14.7 | 0.37 | 1.85 |
